Experimental data taken from article PMC11154709, “4S-fluorination of ProB29 in insulin lispro slows fibril formation” (The Journal of Biological Chemistry, 2024).

How the values were obtained:
[1] = Analytical ultracentrifugation, velocity sedimentation: hydrodynamic parameters; type: physicochemical; settings: 140-206 µM in 100 mM phosphate buffer, pH 8.0, 60,000 RPM, 20 °C, brackets 95% confidence interval
Procedure: Lispro variants (140–206 μM in 100 mM phosphate buffer, pH 8.0) were analyzed by velocity sedimentation at the Canadian Center for Hydrodynamics at the University of Lethbridge using absorbance optics. All samples were measured at 60,000 RPM and 20 °C. Data were analyzed with UltraScan III version 4.0 release 6606 ([38]). Velocity data were initially fitted with the two-dimensional spectrum analysis ([39]) to determine meniscus position and time- and radially-invariant noise, and to generate molecular weight distributions. Two-dimensional spectrum analysis results were refined using the genetic algorithm approach ([40]). Sedimentation and diffusion coefficients derived from the genetic algorithm analysis were transformed to molar mass distributions, assuming a partial specific volume of 0.7248 ml/g for all lispro variants. The enhanced van Holde-Weischet analysis ([41]) was used to determine diffusion-corrected sedimentation coefficient distributions. For the Kd analysis, AUC data were fitted with a discrete model genetic algorithm approach ([29]), assuming the known molar mass of the monomer and floating the Kd, koff, total concentration, partial specific volumes, and frictional ratios as reported in Table S3. […]
Analytical ultracentrifugation:
Lispro variants were formulated at 140 -206 µM in 100 mM phosphate buffer, pH 8.0. Velocity sedimentation experiments were performed at the Canadian Center for Hydrodynamics at the University of Lethbridge using absorbance optics. High concentrations sample s were measured at 237 nm, intermediate concentration samples at 232 nm, and low concentration samples at 225 nm. All samples were measured at 60,000 RPM and 20°C in standard Beckman Coulter cell […]
housings fitted with 0.3 cm epon-charcoal centerpieces for the high concentration samples, and 1.2 cm epon-charcoal centerpieces for the intermediate and low concentration samples. All cells were fitted with sapphire windows. Data were analyzed with UltraScan III version 4.0 release 6606. (38) Velocity data were initially fitted with the two -dimensional spectrum analysis (39) to determine meniscus position and time - and radially-invariant noise, and to generate molecular weight distributions. 2DSA results were refined using the genetic algorithm (GA) approach. (40) Sedimentation and diffusion coefficients derived from the GA analysis were transformed to molar mass distributions (see Figure S2), assuming a partial specific volume of 0.7248 ml/g for all lispro variants. The enhanced van Holde -Weischet analysis (41) was used to determine diffusion - corrected sedimentation coefficient distributions. For the K d analysis, AUC data were fitted with a discrete model genetic algorithm (DMGA) approach,(29) assuming the known molar mass of the monomer, and floating the K d, koff, total concentration, partial specific volumes, and frictional […]
Lispro samples (60 µM in 100 mM sodium phosphate, pH 8.0) were centrifuged at 22,000 g for 1 h at 4°C, before 1 µM thioflavin T (ThT) was added. Each lispro (200 µL) was added to a 96 -well, black, clear bottom plate (Greiner Bio -One) and sealed. Samples were shaken continuously at 960 rpm on a Varioskan multimode plate reader at 37°C, and fluorescence readings were recorded every 15 min (444 nm excitation, 485 nm em ission). Fibrillation runs were performed on at least two separate HPLC fractions, each in triplicate or quadruplicate, and on two different days. The growth phase of each fibrillation replicate was fit to a linear function; f ibrillation lag times were reported as the x-intercept of this fit. Fibril samples were stored at 4°C until analysis by transmission electron microscopy (TEM).
Transmission electron microscopy:
Lispro fibrils were briefly centrifuged (5 kg, 1 min), then washed twice and resuspended in ddH 2O.
Fibrils were stained with 2% uranyl acetate on a 300 -mesh formvar/carbon coated copper grid (Electron Microscopy Sciences) and imaged on a Tecnai T12 LaB6 […] transmission electron […]

[2] = system: zinc- and resorcinol-bound hexamer; assay: Hexamer dissociation kinetics by CD after dilution; type: physicochemical; settings: 250 μM ZnCl2, 25 mM resorcinol; for Hexamer dissociation t1/2: 600 μM insulin or lispro, 25 mM tris pH 8.0, 150-fold dilution, 25 °C, ellipticity at 222 nm over 120 s, at least two separate HPLC fractions, different days
Procedure: We measured the half-life (t1/2) for dissociation of the hexamer form of each lispro variant by monitoring the change in negative ellipticity at 222 nm over time after dilution (Figs. 3A, S4, and S5). Insulin and lispro variants were formulated to mimic the pharmaceutical formulation (600 μM insulin, 25 mM resorcinol, 250 μM ZnCl2); resorcinol was used as the phenolic ligand to slow dissociation ([30]). […] Monitoring dissociation processes faster than that of lispro is limited by the mixing time of this experiment, though comparisons to human insulin can still be made.
Samples were dialyzed overnight against 28.6 mM tris buffer, pH 8.0, then formulated as 600 μM insulin or lispro, 250 μM ZnCl2, 25 mM resorcinol, 25 mM tris, pH 8.0. A 20 μl aliquot of the formulation solution was injected into a stirred buffer solution containing 2.98 ml of 25 mM tris, pH 8.0 (150-fold dilution) at 25 °C. Ellipticity was monitored over 120 s at 222 nm. A typical run led to a rapid drop in CD signal as mixing occurred (∼5 s), then a gradual rise to an ellipticity representative of an insulin monomer. Data preceding the timepoint with the greatest negative ellipticity represented the mixing time and were omitted from further analysis. […] Dissociation data were fit to a mono-exponential function using Scipy (Python). The data presented here are from at least two separate HPLC fractions, measured on different days. […]
Circular dichroism spectroscopy: […]
Kinetic measurements: Insulin or lispro samples in 100 mM sodium phosphate buffer pH 8.0 were dialyzed overnight against 28.6 mM tris buffer, pH 8.0 (Slide -A-Lyzer dialysis cassettes, 3.5 kDa MWCO, ThermoFisher). Samples were formulated as follows: 600 µM lispro, 250 µM ZnCl 2, 25 mM resorcinol, 25 mM tris buffer, pH 8. A 20 µL volume of the insulin formulation was injected into a stirred buffer solution containing 2.98 mL of 25 mM tris, pH 8.0 in a 10 mm quartz cuvette (150-fold dilution). Ellipticity was m onitored at 222 nm over 120 s (1 s kinetic interval, 0.5 s time constant) at 25°C. A typical run led to a rapid drop in CD signal as mixing occurred (~5 s), then a gradual rise to an equilibrium ellipticity representative of an insulin monomer. Data preceding […]
omitted from further analysis. Runs were discarded if the maximum change in mean residue […]
remaining data were fit to a mono -exponential function using Scipy (Python); data presented here are from at least two separate HPLC fractions, measured on two different days.
An equilibrium spectrum for each protein was obtained after dilution; all spectra were indicative of an insulin monomer (Figure S3). The CD spectrum of lispro under pre -dilution formulation conditions was obtained using a 0.1 mm quartz cuvette. […]

[3] = biological target: reversible monomer-dimer equilibrium; settings: read-out: Kd (monomer-dimer), previously reported; cited from earlier work
From the text: The secondary structure of each insulin lispro variant was probed by circular dichroism spectroscopy. […] All lispro samples were further analyzed by analytical ultracentrifuga ...

KP-44-diF: insulin lispro with ProB29 replaced by 4,4-difluoroproline
Partial specific volume PSV [1]: 0.67 [0.64, 0.70] ml g-1 | Dimer diffusion coefficient D [1]: 0.99 [0.84, 1.14] µm2/s | Dimer frictional ratio [1]: 1.50 [1.40, 1.60] | Dimer sedimentation coefficient s [1]: 1.59 [1.30, 1.88] S | Monomer diffusion coefficient D [1]: 1.24 [1.16, 1.32] µm2/s | Monomer frictional ratio [1]: 1.50 [1.40, 1.60] | Monomer sedimentation coefficient s [1]: 1.00 [0.95, 1.04] S | Hexamer dissociation t1/2 [2]: 9.9 ± 2.9 s

insulin lispro: fast-acting insulin with inversion of the residues ProB28 and LysB29; Humalog, Eli Lilly [reference compound]
Partial specific volume PSV [1]: 0.72 [0.70, 0.74] ml g-1 | Dimer diffusion coefficient D [1]: 1.10 [0.99, 1.21] µm2/s | Dimer frictional ratio [1]: 1.31 [1.20, 1.43] | Dimer sedimentation coefficient s [1]: 1.48 [1.25, 1.72] S | Monomer diffusion coefficient D [1]: 1.26 [1.16, 1.35] µm2/s | Monomer frictional ratio [1]: 1.44 [1.32, 1.57] | Monomer sedimentation coefficient s [1]: 0.85 [0.81, 0.88] S | hexamer dissociation ([2]; 600 μM protein, 150-fold dilution, pH 8.0, 25 °C, CD 222 nm): dissociated significantly more rapidly than human insulin | Kd [3]: 1100 µM

KP-4S-F: insulin lispro with ProB29 replaced by 4S-fluoroproline
Partial specific volume PSV [1]: 0.68 [0.67, 0.69] ml g-1 | Dimer diffusion coefficient D [1]: 1.20 [1.05, 1.35] µm2/s | Dimer frictional ratio [1]: 1.23 [1.08, 1.37] | Dimer sedimentation coefficient s [1]: 1.87 [1.63, 2.10] S | Monomer diffusion coefficient D [1]: 1.32 [1.29, 1.36] µm2/s | Monomer frictional ratio [1]: 1.40 [1.35, 1.44] | Monomer sedimentation coefficient s [1]: 1.03 [1.00, 1.05] S | Hexamer dissociation t1/2 [2]: 11.2 ± 3.3 s

KP-4R-F: insulin lispro with ProB29 replaced by 4R-fluoroproline
Partial specific volume PSV [1]: 0.69 [0.69, 0.70] ml g-1 | Dimer diffusion coefficient D [1]: 1.31 [1.08, 1.55] µm2/s | Dimer frictional ratio [1]: 1.12 [0.90, 1.35] | Dimer sedimentation coefficient s [1]: 1.99 [1.58, 2.39] S | Monomer diffusion coefficient D [1]: 1.20 [1.14, 1.25] µm2/s | Monomer frictional ratio [1]: 1.54 [1.47, 1.61] | Monomer sedimentation coefficient s [1]: 0.90 [0.88, 0.93] S | Hexamer dissociation t1/2 [2]: 10.2 ± 1.6 s
